Assay results: publication PMC12630357 (The Journal of Biological Chemistry, 2025)

Target: T1, 6xHis-CotV (Bacillus subtilis 168, UniProt Q08309 1-128)
T1 construct: CotV, spore coat (crust) protein of Bacillus subtilis strain 168; native ORF printed as 129 residues; residues 1-125 resolved in the model; Forms a helical filament; the number of copies is not fixed; also called 6xHis-tagged CotV; CotV1; source: E. coli BL21(DE3), coexpressed with CotW from pET-DUET, Ni-NTA purified as the CotVW complex; not shown: 6xHis (within an N-terminal extension of 14 …)
T1 sequence (looked up): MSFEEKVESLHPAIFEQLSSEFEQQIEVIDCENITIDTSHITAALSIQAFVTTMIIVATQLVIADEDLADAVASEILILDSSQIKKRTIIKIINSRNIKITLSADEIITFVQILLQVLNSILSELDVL
Test: cryo-EM structure; helical reconstruction of 6xHis-tagged CotVW filaments, 3.32 Å; twist 153.09°, rise 9.52 Å, one CotV-CotW heterodimer per asymmetric unit
Settings: both partners purified

stoichiometry N: 1
B1: CotW (natural protein, Bacillus subtilis 168, UniProt Q08310 1-105, looked up)
chain: MSDNDKFKEELAKLPEVDPMTKMLVQNIFSKHGVTKDKMKKVSDEEKEMLLNLVKDLQAKSQALIENQKKKKEEAAAQEQKNTKPLSRREQLIEQIRQRRKNDNN
notes: CotW, spore coat (crust) protein of Bacillus subtilis strain 168; native ORF 105 residues; residues 18-98 resolved in the model; also called CotW1; CotW monomer; source: E. coli BL21(DE3), coexpressed with 6xHis-CotV from pET-DUET, co-purified on Ni-NTA as the CotVW complex; not shown: single added tyrosine, C-terminal, kept
